{"source": "paper PMC4843846", "about": "“Towards “bionic” proteins: replacement of continuous sequences from HIF-1α with proteomimetics to create functional p300 binding HIF-1α mimics” (Chemical Communications (Cambridge, England), 2016)", "key": {"p300 [1]": {"target": "T1, p300 (Homo sapiens, UniProt Q09472)", "test": "fluorescence anisotropy competition", "conditions": "cited from earlier work"}, "p300 [2]": {"target": "T1, p300", "test": "fluorescence anisotropy", "conditions": "cited from earlier work"}, "p300 [3]": {"target": "T1, p300", "test": "fluorescence anisotropy direct binding to p300", "set-up": "made in house", "conditions": "fluorescein-labelled conjugates", "procedure": "The hybrids 2 and 3a–c were then tested in a previously described fluorescence anisotropy p300/HIF-1α competition and p300 binding assays respectively (Fig. 2a).[33]\nFig. 2 Biophysical screening of HIF-1α peptides and hybrids, HIF-1α794–826, 2 and 3a–c (a) fluorescence anisotropy (FA) competition data for inhibition of p300/FITC-HIF-1α C-TAD for HIF-1α794–826 and 2 (b) (FA) binding data for 3a–c to p300 (schematic structure shown below).\nBinding assays and protein expression were carried out as previously reported. 2, 3\nThe helix 2-3 peptide and the helix 2-extended peptide were purchased from Proteogenix,\nFrance and the sequences shown below.\n(1 picture or pasted object on this page, not shown here)"}, "p53/hDM2 interaction": {"system": "p53/hDM2 interaction", "test": "fluorescence anisotropy competition assay p53/hDM2", "format": "binding", "description": "At first the lower inhibitory potency of both HIF-1α794–826 and hybrid 2 in comparison to helix mimetic 1 (9.2(±0.9) μM) which we determined previously,[33] might seem counterintuitive. One explanation that might account for this observation is that there may be a non-specific component to PPI inhibition associated with the aromatic oligoamide helix mimetic 1 (supported in part by a non-unity Hill co-efficient for the curve fitting, a property not observed for 2). […] We therefore performed further biophysical analysis. Although we illustrated previously that inhibition of HIF-1α/p300 by 1 was specific to the scaffold and selective in comparison to the eIF4E/4G interaction,[33] we expanded the range of assays here. […] Thus, by adding native amino acid residues from the HIF-1α sequence to the core helix mimetic 1 in hybrid 2, the specificity and selectivity of binding towards target interactions was improved.\nFig. 3 Biophysical screening of helix mimetic 1 and hybrid 2 to profile selectivity; FA competition data for inhibition of p53/hDM2."}, "HIF-1α/p300 interaction": {"target": "T2, HIF-1α/p300 interaction (Homo sapiens, UniProt Q09472)", "T2 construct": "made in house", "T2 sequence (Q09472 330-420 limits assumed)": "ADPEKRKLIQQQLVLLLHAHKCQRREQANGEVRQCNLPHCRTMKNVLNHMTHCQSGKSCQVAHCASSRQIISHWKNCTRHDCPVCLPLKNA", "set-up": "method as in 2 sources, ref 33 = [33]; PMID 24782431; doi:10.1002/cbic.201400009; Burslem G. M. Kyle H. F. Breeze A. L. Edwards T. A. Nelson A. Warriner S. L. Wilson A. J. ChemBioChem 2014 15 1083 1087 24782431 10.1002/cbic.201400009 PMC4159589 ||| ref 32 = [32]; PMID 26135796; doi:10.1039/c5mb00284b; Kyle H. F. Wickson K. F. Stott J. Burslem G. M. Breeze A. L. Tiede C. Tomlinson D. C. Warriner S. L. Nelson A. Wilson A. J. Edwards T. A. Mol. BioSyst. 2015 11 2738 2749 26135796 10.1039/c5mb00284b", "conditions": "fluorescence anisotropy competition; prior truncation studies; read-out: IC50, inhibition of the HIF-1α/p300 interaction by HIF-1α peptides; cited from earlier work"}, "p300 [4]": {"target": "T1, p300", "set-up": "made in house", "conditions": "fluorescence anisotropy direct binding; cited from earlier work", "description": "A requirement for optimal linker length is supported by the fact that as the length of the PEG linker in 3a–c increases, so does binding affinity. In spite of the weaker binding affinities observed for 3a–c, the weak binding for HIF794–804 (helix 2) and HIF816– ..."}, "[5]": {"target": "HIF-1α C-TAD 794-826 (Homo sapiens) (UniProt Q16665)", "test": "fluorescence anisotropy", "conditions": "cited from earlier work"}}, "note": "Read-outs that look alike come from different tables or passages of the source. Starred links: 1 amine or outer side, 2 acyl side, 3 side chain; linkers in the order of their positions; H or OH if unused. Non-standard residues stand in square brackets, D forms with d. Residues, ends and D or L forms follow the SMILES beside them. No end group written: not given here. *: point of attachment. PEG24 = NCCOCCOCCOCCOCCOCCOCCOCCOCCOCCOCCOCCOCCOCCOCCOCCOCCOCCOCCOCCOCCOCCOCCOCCOCCC(=O)O; FITC = O=C1OC2(c3ccc(O)cc3Oc3cc(O)ccc32)c2ccc(NC(=S)*)cc21; PEG12 = NCCOCCOCCOCCOCCOCCOCCOCCOCCOCCOCCOCCOCCC(=O)O; 4Abz(3-OiBu) = CC(C)COc1cc(C(=O)[*:2])ccc1N[*:1]; PEG8 = NCCOCCOCCOCCOCCOCCOCCOCCOCCC(=O)O; X1 = CC(C)Oc1cc(C(=O)[*:2])ccc1N[*:1]; Ahx = NCCCCCC(=O)O"}
{"compound": "HIF-1α794-815 794-815 (from UniProt Q16665)", "values": [{"measurement": "IC50", "setting": "p300 [1]", "value": "> 500", "unit": "µM"}]}
{"compound": "FITC-HIF-1α794-826 794-826 (from UniProt Q16665)", "values": [{"measurement": "Kd", "setting": "p300 [2]", "value": 6.74, "unit": "µM"}]}
{"compound": "CC(C)C[C@H](NC(=O)[C@H](C)NC(=O)[C@H](CCCNC(=N)N)NC(=O)[C@H](CC(C)C)NC(=O)[C@H](CC(C)C)NC(=O)[C@H](CCC(=O)O)NC(=O)[C@H](CCC(=O)O)NC(=O)CCOCCOCCOCCOCCOCCOCCOCCOCCOCCOCCOCCOCCNC(=O)[C@H](C)NC(=O)[C@H](CC(N)=O)NC(=O)[C@@H](NC(=O)[C@H](CCC(=O)O)NC(=O)[C@H](CS)NC(=O)[C@H](CC(=O)O)NC(=O)[C@H](Cc1ccc(O)cc1)NC(=O)[C@H](CO)NC(=O)[C@@H](NC(=O)[C@H](CC(C)C)NC(=O)[C@H](CCC(N)=O)NC(=O)CCCCCNC(=S)Nc1ccc2c(c1)C(=O)OC21c2ccc(O)cc2Oc2cc(O)ccc21)[C@@H](C)O)C(C)C)C(=O)N[C@@H](CC(=O)O)C(=O)N[C@@H](CCC(N)=O)C(=O)N[C@H](C(=O)N[C@@H](CC(N)=O)C(N)=O)C(C)C", "note": "[3b] ({FITC-Ahx}-QLTSYDCEVNA[PEG12]EELLRALDQVN-NH2)", "values": [{"measurement": "Kd", "setting": "p300 [3]", "value": "> 200", "unit": "µM"}]}
{"compound": "CC[C@H](C)[C@H](NC(=O)[C@@H]1CCCN1C(=O)[C@H](C)NC(=O)[C@H](CC(N)=O)NC(=O)[C@@H](NC(=O)[C@H](CCC(=O)O)NC(=O)[C@H](CO)NC(=O)[C@H](Cc1ccc(O)cc1)NC(=O)[C@H](CO)NC(=O)[C@@H](NC(=O)[C@H](CC(C)C)NC(=O)[C@H](CCC(N)=O)NC(C)=O)[C@@H](C)O)C(C)C)C(=O)N[C@@H](CCC(N)=O)C(=O)N[C@@H](CO)C(=O)N[C@@H](CCCNC(=N)N)C(=O)N[C@@H](CC(N)=O)C(=O)N[C@@H](CC(C)C)C(=O)N[C@@H](CC(C)C)C(=O)N[C@@H](CCC(N)=O)C(=O)NCC(=O)NCC(=O)Nc1ccc(C(=O)Nc2ccc(C(=O)Nc3ccc(C(=O)NCC(=O)O)cc3OC(C)C)cc2OCC(C)C)cc1OCC(C)C", "note": "[compound 2] (Ac-QLTSYSEVNAPIQSRNLLQGG[4Abz(3-OiBu)][4Abz(3-OiBu)][X1]G-OH)", "values": [{"measurement": "IC50", "setting": "p53/hDM2 interaction", "value": "> 100", "unit": "µM"}]}
{"compound": "HIF-1α794-826 794-826 (from UniProt Q16665)", "values": [{"measurement": "IC50", "setting": "p300 [1]", "value": 89, "unit": "µM"}]}
{"compound": "CC(C)C[C@H](NC(=O)[C@H](C)NC(=O)[C@H](CCCNC(=N)N)NC(=O)[C@H](CC(C)C)NC(=O)[C@H](CC(C)C)NC(=O)[C@H](CCC(=O)O)NC(=O)[C@H](CCC(=O)O)NC(=O)CCOCCOCCOCCOCCOCCOCCOCCOCCOCCOCCOCCOCCOCCOCCOCCOCCOCCOCCOCCOCCOCCOCCOCCOCCNC(=O)[C@H](C)NC(=O)[C@H](CC(N)=O)NC(=O)[C@@H](NC(=O)[C@H](CCC(=O)O)NC(=O)[C@H](CS)NC(=O)[C@H](CC(=O)O)NC(=O)[C@H](Cc1ccc(O)cc1)NC(=O)[C@H](CO)NC(=O)[C@@H](NC(=O)[C@H](CC(C)C)NC(=O)[C@H](CCC(N)=O)NC(=O)CCCCCNC(=S)Nc1ccc2c(c1)C(=O)OC21c2ccc(O)cc2Oc2cc(O)ccc21)[C@@H](C)O)C(C)C)C(=O)N[C@@H](CC(=O)O)C(=O)N[C@@H](CCC(N)=O)C(=O)N[C@H](C(=O)N[C@@H](CC(N)=O)C(N)=O)C(C)C", "note": "[3c] ({FITC-Ahx}-QLTSYDCEVNA[PEG24]EELLRALDQVN-NH2)", "values": [{"measurement": "Kd", "setting": "p300 [3]", "value": 144, "unit": "µM"}]}
{"compound": "CC(C)C[C@H](NC(=O)[C@H](C)NC(=O)[C@H](CCCNC(=N)N)NC(=O)[C@H](CC(C)C)NC(=O)[C@H](CC(C)C)NC(=O)[C@H](CCC(=O)O)NC(=O)[C@H](CCC(=O)O)NC(=O)CCOCCOCCOCCOCCOCCOCCOCCOCCNC(=O)[C@H](C)NC(=O)[C@H](CC(N)=O)NC(=O)[C@@H](NC(=O)[C@H](CCC(=O)O)NC(=O)[C@H](CS)NC(=O)[C@H](CC(=O)O)NC(=O)[C@H](Cc1ccc(O)cc1)NC(=O)[C@H](CO)NC(=O)[C@@H](NC(=O)[C@H](CC(C)C)NC(=O)[C@H](CCC(N)=O)NC(=O)CCCCCNC(=S)Nc1ccc2c(c1)C(=O)OC21c2ccc(O)cc2Oc2cc(O)ccc21)[C@@H](C)O)C(C)C)C(=O)N[C@@H](CC(=O)O)C(=O)N[C@@H](CCC(N)=O)C(=O)N[C@H](C(=O)N[C@@H](CC(N)=O)C(N)=O)C(C)C", "note": "[3a] ({FITC-Ahx}-QLTSYDCEVNA[PEG8]EELLRALDQVN-NH2)", "values": [{"measurement": "Kd", "setting": "p300 [3]", "value": "> 200", "unit": "µM"}]}
{"compound": "Ac-QLTSYDCEVNAPIQGSRNLLQ-NH 2 (Ac-QLTSYDCEVNAPIQGSRNLLQ-NH2) [HIF-1α794–815, peptide comprising the same residues as the peptidic region of hybrid 2]", "values": [{"measurement": "IC50", "setting": "HIF-1α/p300 interaction", "value": "> 500", "unit": "µM"}]}
{"compound": "FITC-HIF-1α794–826: FITC-labelled HIF-1α794–826 peptide ({FITC}-QLTSYDCEVNAPIQGSRNLLQGEELLRALDQVN; UniProt Q16665 794-826, looked up, fragment)", "values": [{"measurement": "Kd", "setting": "p300 [4]", "value": "6.74 ± 0.54", "unit": "µM"}]}
{"compound": "p300 (from UniProt Q09472)", "values": [{"measurement": "Kd", "setting": "[5]", "value": 6.74, "unit": "µM"}]}
{"compound": "Ac-LGQSMDESGLPQLTSYDCEVNAPIQGSRNLLQGEELLRALDQVN-NH2 [HIF-1α782–826, 42 residue HIF-1α C-TAD peptide]", "values": [{"measurement": "IC50", "setting": "HIF-1α/p300 interaction", "value": 0.59, "unit": "µM"}]}
